In the supplement of paper PMC10567573:

B1: PCDHGA10 (parent)
chain: FHELQMQVTASDSGDPPLSSNVSL
B2: PPFIA4 (parent)
chain: PGVHRRYSALREESAKDWETSPLP
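Further: lentivirally expressed fusions sorted by FACS into six bins by GFP to DsRed ratio, PSI derived from sequencing read proportions per bin multiplied by bin number.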

Variants of: B1
Test: protein stability index of a GFP-peptide fusion (GPS, HEK-293T) (PSI 1-6); higher = more stable
Conditions: c terminus: a fixed tail appended
FHELQMQVTASDSGDKPLSSNVSL [P16K] showed a protein stability index of 2.36.
FHELQMQVTASDSGDHPLSSNVSL [P16H] gave a protein stability index of 2.1.
Variant FHELQMQVTASDSGDPPLSSNVTL [S23T] has a protein stability index of 2.18.
For FHELQMQVTASDSGDPPLSSNVWL [S23W], the protein stability index was 2.08.
FHELQMQVTASDSGDPPLSSNVIL [S23I] showed a protein stability index of 1.89.
Work on FHELQMQVTASDSGDPPLSSNVNL [S23N] yielded a protein stability index of 2.46.
FHELQMQVTASDSGDPPLSSNVVL [S23V] gave a protein stability index of 2.05.
With FHELQMQVTASDSGDPPLSSNVDL [S23D] the protein stability index was 3.16.

Variants of: B2
Test: as above
Conditions: c terminus: a fixed tail appended
For HGVHRRYSALREESAKDWETSPLP [P1H], the protein stability index was 4.36.
Work on NGVHRRYSALREESAKDWETSPLP [P1N] yielded a protein stability index of 3.88.
MGVHRRYSALREESAKDWETSPLP [P1M] showed a protein stability index of 3.51.
PGVYRRYSALREESAKDWETSPLP [H4Y] gave a protein stability index of 4.81.
For PGVPRRYSALREESAKDWETSPLP [H4P], the protein stability index was 4.33.
PGVHRRYSAQREESAKDWETSPLP [L10Q] gave a protein stability index of 3.63.
With PGVHRRYSADREESAKDWETSPLP [L10D] the protein stability index was 4.97.
For PGVHRRYSALREESAKDWETEPLP [S21E], the protein stability index was 4.5.
PGVHRRYSALREESAKDWETLPLP [S21L] showed a protein stability index of 3.6.
For PGVHRRYSALREESAKDWETNPLP [S21N], the protein stability index was 5.33.
With PGVHRRYSALREESAKDWETDPLP [S21D] the protein stability index was 5.1.
PGVHRRYSALREESAKDWETWPLP [S21W] showed a protein stability index of 4.24.
In the case of PGVHRRYSALREESAKDWETIPLP [S21I], the protein stability index is reported as 3.39.
In the case of PGVHRRYSALREESAKDWETFPLP [S21F], the protein stability index is reported as 3.34.
PGVHRRYSALREESAKDWETQPLP [S21Q] gave a protein stability index of 4.24.
For PGVHRRMSALREESAKDWETSPLP [Y7M], the protein stability index was 4.56.
With PGVHRRESALREESAKDWETSPLP [Y7E] the protein stability index was 5.25.
In the case of PGVHRRHSALREESAKDWETSPLP [Y7H], the protein stability index is reported as 4.39.
PGVHRRYSALREESAEDWETSPLP [K16E] showed a protein stability index of 4.51.
PGVHRRYSALREESAADWETSPLP [K16A] showed a protein stability index of 3.7.
PGVHRRYSALREESAMDWETSPLP [K16M] gave a protein stability index of 4.24.
PGVHRRYSALREESATDWETSPLP [K16T] gave a protein stability index of 4.5.
For PGVHRRYSALREESFKDWETSPLP [A15F], the protein stability index was 3.52.
Work on PGVHRRYSALREESGKDWETSPLP [A15G] yielded a protein stability index of 4.07.
PGVHRRYSALREESAKDWETSPLV [P24V] gave a protein stability index of 4.15.
PGVHRRYSALREESAKDWETSPLN [P24N] showed a protein stability index of 4.43.
For PGVHRRYSALREESAKDWETSPLT [P24T], the protein stability index was 4.04.
Variant PGVHRRYSALREESAKDWETSPLK [P24K] has a protein stability index of 4.6.
Work on PGVHRRYSALREEGAKDWETSPLP [S14G] yielded a protein stability index of 4.12.
In the case of PGVHRRYSALREERAKDWETSPLP [S14R], the protein stability index is reported as 3.07.
Variant PGVHRRYSALREEHAKDWETSPLP [S14H] has a protein stability index of 4.19.
In the case of PGVHRRYSALREEWAKDWETSPLP [S14W], the protein stability index is reported as 2.81.
PGVHRRYSALREEQAKDWETSPLP [S14Q] showed a protein stability index of 3.63.
Variant PGVHRRYSALREETAKDWETSPLP [S14T] has a protein stability index of 3.56.
PGVHRRYSALREESAKWWETSPLP [D17W] gave a protein stability index of 1.97.
For PGVHRRYSALREESAKRWETSPLP [D17R], the protein stability index was 3.34.
Work on PGVHRRYSALREESAKKWETSPLP [D17K] yielded a protein stability index of 3.36.
Variant PGVHRRYSALREESAKIWETSPLP [D17I] has a protein stability index of 3.33.
Variant PGVHRRYSALREESAKYWETSPLP [D17Y] has a protein stability index of 2.72.
In the case of PGVHRRYSALREESAKDWETSLLP [P22L], the protein stability index is reported as 3.67.
PGVHRRYSALREESAKDWETSDLP [P22D] gave a protein stability index of 4.63.
PGLHRRYSALREESAKDWETSPLP [V3L] gave a protein stability index of 3.66.
For PGHHRRYSALREESAKDWETSPLP [V3H], the protein stability index was 4.44.
For PGSHRRYSALREESAKDWETSPLP [V3S], the protein stability index was 3.89.
With PGTHRRYSALREESAKDWETSPLP [V3T] the protein stability index was 4.7.
With PGVHRRYSALREESAKDHETSPLP [W18H] the protein stability index was 5.23.
For PGVHRRYSALREESAKDMETSPLP [W18M], the protein stability index was 5.08.
With PGVHRRYSALREESAKDDETSPLP [W18D] the protein stability index was 5.58.
Variant PGVHRRYSALREESAKDPETSPLP [W18P] has a protein stability index of 5.21.
For PGVHRRYSALREESAKDRETSPLP [W18R], the protein stability index was 4.42.
PGVHRRYSALREESAKDEETSPLP [W18E] showed a protein stability index of 5.15.
Variant PGVHFRYSALREESAKDWETSPLP [R5F] has a protein stability index of 3.99.
PGVHRRYSALREESAKDWERSPLP [T20R] gave a protein stability index of 3.66.
In the case of PGVHRRYSALREESAKDWEVSPLP [T20V], the protein stability index is reported as 2.73.
In the case of PGVHRRYSALREESAKDWEQSPLP [T20Q], the protein stability index is reported as 4.49.
With PGVHRRYSALREESAKDWEHSPLP [T20H] the protein stability index was 4.47.
PGVHRRYSALRHESAKDWETSPLP [E12H] showed a protein stability index of 3.85.
With PGVHRRYSALRAESAKDWETSPLP [E12A] the protein stability index was 3.94.
Work on PGVHRRYSALRKESAKDWETSPLP [E12K] yielded a protein stability index of 3.96.
With PGVHRRYSALRSESAKDWETSPLP [E12S] the protein stability index was 3.68.
PGVHRRYSALREESAKDWDTSPLP [E19D] showed a protein stability index of 4.03.
PGVHRRYSALREESAKDWPTSPLP [E19P] gave a protein stability index of 3.59.
Variant PGVHRRYSALREESAKDWQTSPLP [E19Q] has a protein stability index of 4.18.
In the case of PGVHRRYSALREESAKDWFTSPLP [E19F], the protein stability index is reported as 2.4.
Variant PGVHRRYSALQEESAKDWETSPLP [R11Q] has a protein stability index of 4.65.
In the case of PGVHRRYSALIEESAKDWETSPLP [R11I], the protein stability index is reported as 3.92.
With PGVHRRYSALYEESAKDWETSPLP [R11Y] the protein stability index was 3.79.
PGVHRRYSALHEESAKDWETSPLP [R11H] gave a protein stability index of 3.67.
Work on PGVHRRYSALNEESAKDWETSPLP [R11N] yielded a protein stability index of 4.58.
PGVHRRYSQLREESAKDWETSPLP [A9Q] gave a protein stability index of 3.5.
For PGVHRRYSMLREESAKDWETSPLP [A9M], the protein stability index was 3.86.
In the case of PGVHRQYSALREESAKDWETSPLP [R6Q], the protein stability index is reported as 4.31.
In the case of PGVHRPYSALREESAKDWETSPLP [R6P], the protein stability index is reported as 3.91.
Work on PGVHRIYSALREESAKDWETSPLP [R6I] yielded a protein stability index of 3.39.
PGVHRYYSALREESAKDWETSPLP [R6Y] gave a protein stability index of 3.62.
In the case of PGVHRDYSALREESAKDWETSPLP [R6D], the protein stability index is reported as 4.7.
PGVHRRYSALREESAKDWETSPSP [L23S] gave a protein stability index of 4.56.
PGVHRRYSALREESAKDWETSPFP [L23F] gave a protein stability index of 4.27.
PGVHRRYSALREESAKDWETSPAP [L23A] showed a protein stability index of 4.67.
PGVHRRYSALREESAKDWETSPEP [L23E] gave a protein stability index of 3.3.
With PGVHRRYSALREESAKDWETSPRP [L23R] the protein stability index was 4.25.
PGVHRRYKALREESAKDWETSPLP [S8K] showed a protein stability index of 4.64.
Work on PGVHRRYVALREESAKDWETSPLP [S8V] yielded a protein stability index of 3.67.
In the case of PGVHRRYRALREESAKDWETSPLP [S8R], the protein stability index is reported as 4.07.
In the case of PGVHRRYGALREESAKDWETSPLP [S8G], the protein stability index is reported as 4.23.
For PGVHRRYWALREESAKDWETSPLP [S8W], the protein stability index was 2.08.
